Assay results from article doi:10.1101/2020.12.02.408153.

Columns and labels:
Assay in all cases: SPR
[1] = target: SARS-CoV-2 extended S1 subunit (SARS-CoV-2) (UniProt P0DTC2)
[2] = target: SARS-CoV-2 spike glycoprotein ectodomain with poly-histidine tag (SARS-CoV-2 | bacteriophage T4) (UniProt P0DTC2)
[3] = target: SARS-CoV-2 spike glycoprotein ectodomain with double Strep II tag (SARS-CoV-2 | bacteriophage T4) (UniProt P0DTC2)

Chain of human angiotensin converting enzyme 2 (Q9BYF1 20-611): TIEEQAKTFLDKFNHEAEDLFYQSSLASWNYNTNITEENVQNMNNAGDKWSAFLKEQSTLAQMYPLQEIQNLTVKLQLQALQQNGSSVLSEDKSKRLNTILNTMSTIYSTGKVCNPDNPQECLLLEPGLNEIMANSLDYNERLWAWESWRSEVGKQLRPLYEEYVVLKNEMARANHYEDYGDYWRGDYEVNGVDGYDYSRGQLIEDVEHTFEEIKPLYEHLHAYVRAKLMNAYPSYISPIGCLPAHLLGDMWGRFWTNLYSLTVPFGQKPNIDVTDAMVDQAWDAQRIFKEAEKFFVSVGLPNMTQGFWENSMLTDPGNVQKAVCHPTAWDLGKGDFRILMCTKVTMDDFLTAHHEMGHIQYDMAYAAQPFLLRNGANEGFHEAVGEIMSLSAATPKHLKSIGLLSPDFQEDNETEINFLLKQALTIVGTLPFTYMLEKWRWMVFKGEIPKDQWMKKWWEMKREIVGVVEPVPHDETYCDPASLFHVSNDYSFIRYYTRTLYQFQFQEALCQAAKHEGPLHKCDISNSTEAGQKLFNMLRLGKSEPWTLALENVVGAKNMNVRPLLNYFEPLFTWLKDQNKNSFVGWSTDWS

Row | Substance | IC50 [1] | Kd [1] | Kd [2] | IC50 [3] | Kd [3]
1 | LL-37 (peptide) | 170 nM | 200 nM | 420 nM | 740 nM | 410 nM
2 | human angiotensin converting enzyme 2 (from UniProt Q9BYF1-1 20-611) (receptor) | – | 610 nM | 370 nM | – | 370 nM
